Tests used:
Tyr16 (position 16, …-) = test: potentiometry; details: 298 K; 0.1 M NaClO4; none (4 mM HClO4, 0.5 mM peptide); free peptide, no metal
[1] = target: Lys4 (position 4, --VERKEG---); test: potentiometry; details: 298 K, 0.1 M NaClO4

Protein	pKa (Tyr16 (position 16, …-))	pKa ([1]; none (4 mM HClO4, 0.5 mM peptide), free peptide, no metal)	pKa ([1]; none (4 mM HClO4, 0.5 mM peptide, Mohr's salt as Fe(II) source), Fe(II) present, Fe(II):L = 1:1.1, step [FeLH-3]2- to [FeLH-4]3- of the 1:1 Fe(II):L2 complex)
IMRGEATPFVMELPVYHVPH [L1, peptide model of the Core CFeoB region of FeoB (residues 477-496) (Escherichia coli K12)]	9.67	–	–
VERKEG	–	9.92	9.87

— paper PMC11920956
